B1: PRO2668 (protein)
chain: AFELTQSPSSLSASVGDRVTITCQASESINSRLAWYQQKPGQPPKLLIYDASDLTSGVPSRFSGSGSGTDFTLTISSLQPEDFATYYCQGYGGSSTTTFGCGTKLTVLGGGGGSEVQLVESGGGRVQPGGSLRLSCAASGFSLSSYDMSWVRQAPGKGLAWIGASYASGPTYYASWAKGRFTISRDNSKNTVYLQMNSLRAEDTATYFCARGGWTGTSHSNIWGQGTQVTVSSGGGGSGGGGSGGGGSGGGGSDIQMTQSPSSLSASVGDRVTITCQSSQSVFSNNYLAWFQQKPGQSPKRLIYSASTLASGVPSRFSGSGSGTDFTLTISSLQPEDFATYYCLGSYACSSADCYVFGTGTKVTVLGGGGGSEVQLVESGGGRVQPGGSLRLSCAASGFSLSSYAMNWVRQAPGKCLEWIGHINAGDIAYYATWAKGRFTISRDNSKNTVYLQMNSLRAEDTATYFCARGAGGFSTGPFKLWGQGTQVTVSSGGGGSGGGGSAQQLTQSPSSLSASVGDRVTITCQASQNVWNNNYLSWFQQKPGKPPKLLIVTASTLASGVSSRFSGSGSGTDFTLTISSLQPEDFATYYCAGGFSGEIRAFGCGTKVTVLGGGGGSGGGGSGGGGSGGGGSQSQLVESGGGRVQPGGSLRLSCAVSGLSLSRNAMSWVRQAPGKCLEWIGIILTSGSTYYASWAKGRFTISKDNSKNTVYLQMNSLRAEDTATYFCVRGIASSSLKSFWGQGTQVTVSS
B2: PRO2510 (protein)
chain: AFELTQSPSSLSASVGDRVTITCQASESINSRLAWYQQKPGQPPKLLIYDASDLTSGVPSRFSGSGSGTDFTLTISSLQPEDFATYYCQGYGGSSTTTFGCGTKLTVLGGGGGSEVQLVESGGGLVQPGGSLRLSCAASGFSLSSYDMSWVRQAPGKGLAWIGASYASGPTYYASWAKGRFTISRDNSKNTVYLQMNSLRAEDTATYFCARGGWTGTSHSNIWGQGTLVTVSSGGGGSGGGGSGGGGSGGGGSDIQMTQSPSSLSASVGDRVTITCQSSQSVFSNNYLAWFQQKPGQSPKRLIYSASTLASGVPSRFSGSGSGTDFTLTISSLQPEDFATYYCLGSYACSSADCYVFGTGTKVTVLGGGGGSEVQLVESGGGLVQPGGSLRLSCAASGFSLSSYAMNWVRQAPGKCLEWIGHINAGDIAYYATWAKGRFTISRDNSKNTVYLQMNSLRAEDTAVYFCARGAGGFSTGPFKLWGQGTLVTVSSGGGGSGGGGSAQQLTQSPSSLSASVGDRVTITCQASQNVWNNNYLSWFQQKPGKPPKLLIVTASTLASGVSSRFSGSGSGTDFTLTISSLQPEDFATYYCAGGFSGEIRAFGCGTKVTVLGGGGGSGGGGSGGGGSGGGGSQSQLVESGGGLVQPGGSLRLSCAVSGLSLSRNAMSWVRQAPGKCLEWIGIILTSGSTYYASWAKGRFTISKDNSKNTVYLQMNSLRAEDTAVYFCVRGIASSSLKSFWGQGTLVTVSS
B3: PRO2669 (protein)
chain 1: DVQMTQSPSSLSASVGDRVTITCRASENIYSGLAWYQQKPGKPPKLLIYRASTLASGVSSRFSGSGSGTDFTLTISSLQPEDFATYYCQGGYYSSSSTYIAFGTGTKVTVLGGGGGSGGGGSGGGGSGGGGSQSQVVESGGGRVQPGGSLRLSCAVSGFDLSSYAVSWVRQAPGKGLEWIGIIYPRANTYYASWAKGRFTISKDNSKNTVYLQMNSLRAEDTATYFCARDRYDSGAYLYTTYFNLWGQGTQVTVSSGGGGSGGGGSAFELTQSPSSLSASVGDRVTITCQASESINSRLAWYQQKPGQPPKLLIYDASDLTSGVPSRFSGSGSGTDFTLTISSLQPEDFATYYCQGYGGSSTTTFGCGTKLTVLGGGSGGSDIQMTQSPSSLSASVGDRVTITCQSSQSVFSNNYLAWFQQKPGQSPKRLIYSASTLASGVPSRFSGSGSGTDFTLTISSLQPEDFATYYCLGSYACSSADCYVFGTGTKVTVLG
chain 2: DVQMTQSPSSLSASVGDRVTITCRASENIYSGLAWYQQKPGKPPKLLIYRASTLASGVSSRFSGSGSGTDFTLTISSLQPEDFATYYCQGGYYSSSSTYIAFGTGTKVTVLGGGGGSGGGGSGGGGSGGGGSQSQVVESGGGRVQPGGSLRLSCAVSGFDLSSYAVSWVRQAPGKGLEWIGIIYPRANTYYASWAKGRFTISKDNSKNTVYLQMNSLRAEDTATYFCARDRYDSGAYLYTTYFNLWGQGTQVTVSSGGGGSGGGGSEVQLVESGGGRVQPGGSLRLSCAASGFSLSSYDMSWVRQAPGKGLAWIGASYASGPTYYASWAKGRFTISRDNSKNTVYLQMNSLRAEDTATYFCARGGWTGTSHSNIWGQGTQVTVSSGGGSGGGSGGGSGEVQLVESGGGRVQPGGSLRLSCAASGFSLSSYAMNWVRQAPGKCLEWIGHINAGDIAYYATWAKGRFTISRDNSKNTVYLQMNSLRAEDTATYFCARGAGGFSTGPFKLWGQGTQVTVSS
B4: NM21-1480 (PRO1480) (protein)
chain: DIQMTQSPASLSASVGDRVTITCQASQSIGTYLAWYQQKPGKPPKLLIYRAFILASGVPSRFSGSGSGTDFTLTISSLQPEDFATYYCQSNFYSDSTTIGPNAFGTGTKVTVLGGGGGSEVQLVESGGGLVQPGGSLRLSCAASGFSFSANYYPCWVRQAPGKGLEWIGCIYGGSSDITYDANWTKGRFTISRDNSKNTVYLQMNSLRAEDTAVYYCARSAWYSGWGGDLWGQGTLVTVSSGGGGSGGGGSGGGGSGGGGSIQMTQSPSSLSASVGDRVTITCQASQSISNRLAWYQQKPGKAPKLLIYSASTLASGVPSRFSGSGSGTDFTLTISSLQPEDFATYYCQSTYYGNDGNAFGTGTKVTVLGGGGGSEVQLVESGGGLVQPGGSLRLSCAASGFSFNSDYWIYWVRQAPGKGLEWIASIYGGSSGNTQYASWAQGRFTISRDNSKNTVYLQMNSLRAEDTAVYFCARGYVDYGGATDLWGQGTLVTVSSGGGGSGGGGSIQMTQSPSSLSASVGDRVTITCQSSESVYSNNQLSWYQQKPGQPPKLLIYDASDLASGVPSRFSGSGSGTDFTLTISSLQPEDFATYYCAGGFSSSSDTAFGGGTKLTVLGGGGGSGGGGSGGGGSGGGGSEVQLVESGGGLVQPGGSLRLSCAASGFSLSSNAMGWVRQAPGKGLEYIGIISVGGFTYYASWAKGRFTISRDNSKNTVYLQMNSLRAEDTATYFCARDRHGGDSSGAFYLWGQGTLVTVSS
B5: PRO2758 (protein)
chain: DIQMTQSPASLSASVGDRVTITCQASQSIGTYLAWYQQKPGKPPKLLIYRAFILASGVPSRFSGSGSGTDFTLTISSLQPEDFATYYCQSNFYSDSTTIGPNAFGTGTKVTVLGGGGGSEVQLVESGGGRVQPGGSLRLSCAASGFSFSANYYPCWVRQAPGKGLEWIGCIYGGSSDITYDAQWTKGRFTISRDNSKNTVYLQMNSLRAEDTATYYCARSAWYSGWGGDLWGQGTQVTVSSGGGGSGGGGSGGGGSGGGGSIQMTQSPSSLSASVGDRVTITCQASQSISNRLAWYQQKPGKAPKLLIYSASTLASGVPSRFSGSGSGTDFTLTISSLQPEDFATYYCQSTYYGNDGNAFGTGTKVTVLGGGGGSEVQLVESGGGRVQPGGSLRLSCAASGFSFNSDYWIYWVRQAPGKGLEWIASIYGGSSGNTQYASWAQGRFTISRDNSKNTVYLQMNSLRAEDTATYFCARGYVDYGGATDLWGQGTQVTVSSGGGGSGGGGSIQMTQSPSSLSASVGDRVTITCQSSESVYSNNQLSWYQQKPGQPPKLLIYDASDLASGVPSRFSGSGSGTDFTLTISSLQPEDFATYYCAGGFSSSSDTAFGGGTKLTVLGGGGGSGGGGSGGGGSGGGGSEVQLVESGGGRVQPGGSLRLSCAASGFSLSSNAMGWVRQAPGKGLEYIGIISVGGFTYYASWAKGRFTISRDNSKNTVYLQMNSLRAEDTATYFCARDRHGGDSSGAFYLWGQGTQVTVSS

Columns and labels:
[1] = target: pre-existing anti-drug antibodies (ADA) present in human sera; assay: ELISA pre-existing ADA binding assay, confirmatory setup, test molecule coated, 20 human sera
[2] = target: pre-existing anti-drug antibodies (ADA) present in human sera; assay: ELISA pre-existing ADA binding assay, confirmatory setup, test molecule coated, 40 human sera

Row | Binder | % positives of total tested serum samples [1] [%] | No of positive serum samples above 30% CCP (serum samples) [1] | % positives of total tested serum samples [2] [%] | No of positive serum samples above 31.56% CCP (serum samples) [2]
1 | B1 | 0 | 0 |  | 
2 | B2 | 15 | 3 |  | 
3 | B3 | 5 | 1 |  | 
4 | B4 |  |  | 22.5 | 9
5 | B5 |  |  | 5 | 2

— patent US20240084039A1
